Experimental findings from patent US20250388643A1, “GLUCAGON-LIKE PEPTIDE-2 COMPOSITIONS AND METHODS OF MAKING AND USING SAME” (Amunix Pharmaceuticals, Inc., priority 2011, published 2025) are described below.

Usually Vd stands for a proportionality between amount in the body and measured concentration, not a real space. A low value points to confinement near the circulation.

Like-named read-outs stand apart in the source and are kept apart here.

The conditions of data set [1]: rat, in vivo. The protocol:
The fusion protein GLP2-2G-XTEN_AE864 was evaluated for its pharmacokinetic properties in Wistar rats following SC administration of two different dosage levels. Prior to the experiment, catheters were surgically implanted into the jugular vein of female Wistar rats. The catheterized animals were randomized into two groups containing three rats each. The fusion protein GLP2-2G-XTEN (lot AP510) was administered to each rat via SC injection as follows: 1) Low Dose 2 mg/kg (25 nmol/kg); or 2) High Dose 16 mg/kg (200 nmol/kg). Blood samples (˜0.2 mL) were collected through the jugular vein catheter from each rat into prechilled heparinized tubes at pre-dose, 0.08, 4, 8, 24, 48, 72, 96, 120 and 168 hours after test compound administration (10 time points). Blood was processed into plasma by centrifugation, split into two aliquots for analysis by ELISA. The samples were analyzed for fusion protein concentration, performed by both anti-XTEN/anti-XTEN sandwich ELISA (AS1602) and anti-GLP2/anti-XTEN sandwich ELISA (AS1705) and the results were analyzed using WinNonLin to obtain the PK parameters. Terminal half life was fit from 48 to 168 hours.

The target in data set [2] is T1, GLP2 G-protein coupled receptor (Homo sapiens, UniProt O95838).
T1 construct: host or cells: Chem-11 cell
T1 sequence (O95838 1-553): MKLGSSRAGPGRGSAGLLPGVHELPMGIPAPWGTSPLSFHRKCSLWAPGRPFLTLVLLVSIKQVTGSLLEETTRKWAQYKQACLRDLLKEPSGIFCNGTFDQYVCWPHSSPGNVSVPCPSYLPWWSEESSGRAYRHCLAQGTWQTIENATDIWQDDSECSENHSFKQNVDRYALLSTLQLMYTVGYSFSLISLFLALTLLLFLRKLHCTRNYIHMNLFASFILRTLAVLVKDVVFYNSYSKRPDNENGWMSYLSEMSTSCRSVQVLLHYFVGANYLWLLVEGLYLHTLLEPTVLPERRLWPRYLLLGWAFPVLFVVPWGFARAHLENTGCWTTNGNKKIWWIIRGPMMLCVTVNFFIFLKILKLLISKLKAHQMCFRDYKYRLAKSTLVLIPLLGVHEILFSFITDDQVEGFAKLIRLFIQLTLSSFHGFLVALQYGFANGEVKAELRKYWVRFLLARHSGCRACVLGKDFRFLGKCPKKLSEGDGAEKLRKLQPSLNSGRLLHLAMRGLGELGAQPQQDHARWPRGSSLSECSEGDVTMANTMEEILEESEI
Description: GLP2R calcium flux potency assay (GPCR Profiler, in vitro receptor binding). As to conditions: calcium flux GLP2R cell assay. Format: cell-based. The protocol: A receptor binding assay was performed using a GPCR Profiler assay (Millipore) to assess GLP2-2G-XTEN preparations (including AP690). The assay employed a transfected GLP2R cell line (Millipore, Cat #HTS164C) consisting of a Chem-11 human cell stably transfected with the GLP2 G-protein coupled receptor and a G alpha protein that stimulates calcium flux upon agonism of the GLP2 receptor.

Data set [3] deals with indomethacin-induced intestinal inflammation in Wistar rats. Description: Rat Crohn's Disease indomethacin-induced intestinal inflammation model, Study 3. Format: in vivo. The protocol: Study 3: A third indomethacin-induced inflammation study was performed to verify previous results and test additional dose regimens. Intestinal inflammation was induced in male Wistar rats (Harlan Sprague Dawley) using indomethacin administered on Days 0 and 1 of the experiment according to Table 21.
All treatments were administered per the schedule starting on Day-3 of the experiment. Body weights were determined daily. On Day 2 (24 hours post-2nd indomethacin dose), the animals were prepped for sacrifice and analysis. The small intestines were removed and the length of each was recorded. Quantitative histopathology was performed on a subset of samples. Rat small intestine samples consisted of a 3 cm section of proximal jejunum and a 3 cm section of mid-jejunum collected 15 cm and 30 cm from the pylorus, respectively. Samples were fixed in 10% neutral buffered formalin. Samples were trimmed into multiple sections without bias toward lesion presence or absence. These sections were placed in cassettes, embedded in paraffin, microtomed at approximately 4 microns thickness, and stained with hematoxylin and eosin (H&E). The slides were evaluated microscopically by a board certified veterinary pathologist and scored for villous height as well as infiltration/inflammation, mucosal atrophy, villi/crypt appearance, abscesses/ulceration. A 1 to 4 severity grading scale was used, where 1=minimal, 2=mild, 3=moderate, 4=marked/severe, reflecting the combination of the cellular reactions seen histopathologically. Small intestine length was analyzed with an ANOVA model with a Tukey/Kramer post-hoc test for pairwise comparisons, with significance at p=0.05. Non-parametric histology score variables were compared with the vehicle control using a Mann Whitney U test with a Bonferroni correction for the p-value to create an overall alpha of 0.05.

For data set [4] the following is noted: mouse, in vivo. The method, then: The fusion protein GLP2-2G-XTEN_AE864 was evaluated for its pharmacokinetic properties in C57Bl/6 mice following subcutaneous (SC) administration. Female C57Bl/6 mice were injected SC with 2 mg/kg (25 nmol/kg) of the GLP2-2G-XTEN (lot AP498A) at 0.25 mg/mL (8 mL/kg). Three mice were sacrificed at each of the following time points: Predose, 0.08, 4, 8, 24, 48, 72, 96 and 120 hours post-dose. Blood samples were collected from the mice and placed into prechilled heparinized tubes at each interval and were separated by centrifugation to recover the plasma. The samples were analyzed for fusion protein concentration, performed by both anti-XTEN/anti-XTEN sandwich ELISA (AS1405) and anti-GLP2/anti-XTEN sandwich ELISA (AS1717), and the results were analyzed using WinNonLin to obtain the PK parameters.

B1: GLP2-2G-XTEN_AE864: fusion protein of GLP-2 with glycine at position 2 linked at the C-terminus to XTEN AE864; sequence of FIG. 28 (SEQ ID NO: 798) (protein)
chain: HGDGSFSDEMNTILDNLAARDFINWLIQTKITDGGSPAGSPTSTEEGTSESATPESGPGTSTEPSEGSAPGSPAGSPTSTEEGTSTEPSEGSAPGTSTEPSEGSAPGTSESATPESGPGSEPATSGSETPGSEPATSGSETPGSPAGSPTSTEEGTSESATPESGPGTSTEPSEGSAPGTSTEPSEGSAPGSPAGSPTSTEEGTSTEPSEGSAPGTSTEPSEGSAPGTSESATPESGPGTSTEPSEGSAPGTSESATPESGPGSEPATSGSETPGTSTEPSEGSAPGTSTEPSEGSAPGTSESATPESGPGTSESATPESGPGSPAGSPTSTEEGTSESATPESGPGSEPATSGSETPGTSESATPESGPGTSTEPSEGSAPGTSTEPSEGSAPGTSTEPSEGSAPGTSTEPSEGSAPGTSTEPSEGSAPGTSTEPSEGSAPGSPAGSPTSTEEGTSTEPSEGSAPGTSESATPESGPGSEPATSGSETPGTSESATPESGPGSEPATSGSETPGTSESATPESGPGTSTEPSEGSAPGTSESATPESGPGSPAGSPTSTEEGSPAGSPTSTEEGSPAGSPTSTEEGTSESATPESGPGTSTEPSEGSAPGTSESATPESGPGSEPATSGSETPGTSESATPESGPGSEPATSGSETPGTSESATPESGPGTSTEPSEGSAPGSPAGSPTSTEEGTSESATPESGPGSEPATSGSETPGTSESATPESGPGSPAGSPTSTEEGSPAGSPTSTEEGTSTEPSEGSAPGTSESATPESGPGTSESATPESGPGTSESATPESGPGSEPATSGSETPGSEPATSGSETPGSPAGSPTSTEEGTSTEPSEGSAPGTSTEPSEGSAPGSEPATSGSETPGTSESATPESGPGTSTEPSEGSAPG
Turning to B1, in data set [1], the Cl was found to be 0.80 mL/h, the “T ½” value came out at 43.6 h and the volume of distribution (Vd) turned out to be 0.21 L/kg. The terminal half-life in data set [1] (sc) fell in the range of 37.5 to 49.7 h. Also, in data set [1] (sc, 2 mg/kg), the AUCInf was determined as 530 µg·h/mL and the Vz is listed as 43.4 mL. Also, in data set [2], the “potency compared to GLP2-2G” value is reported as “about 2%”. The small intestine length result in data set [3] (compared to vehicle-treated diseased rats, FIG. 24A) is “increase in small intestine length”. For the same molecule, the “efficacy by regimen compared with peptide” value in data set [3] (dosed once at 75 nmol/kg or three times at 25 nmol/kg) was “as effective as GLP2-2G peptide dosed ten times at 12.5 nmol/kg”. Also, the villi height result in data set [3] (fusion protein high (total dose 125 nmol/kg) and low (total dose 75 nmol/kg), FIG. 24B) is “significant increase in villi height”. Besides, the mucosal atrophy score result in data set [3] (high and low dose, vs vehicle-treated diseased rats, FIG. 24C) is recorded as “significantly lower mucosal atrophy score”. In addition, the “efficacy in improving indomethacin-induced small intestine damage (histopathology)” value in data set [3] (rat, in vivo) was “as good or better than GLP2-2G peptide”. In addition, the “mucosal ulceration and mixed cell infiltrate” value in data set [3] (three treatment groups) was “not significant”. In data set [4], the Cl came out at 0.07 mL/h, the “T ½” value came to 33.9 h and the distribution volume (Vd) was determined as 0.14 L/kg.
